Results as given in US20190031762A1, “POSTERIOR OCULAR FIBROSIS INHIBITION BY ANTAGONIZING PLACENTAL GROWTH FACTOR” (THROMBOGENICS NV, priority 2016, published 2019).
Entries after “also recorded” stand apart in the source; their conditions may differ.

How the values were obtained:
mouse CNV model [1] = experiment: Posterior ocular collagen deposition (Col1a staining) in laser-induced CNV mouse model; assay type: in vivo; conditions: for reduction in collagen deposition (Col1a): IVT D0, 4, 10 and 20
Description: (§1) Mice (C57BL/6J, male, 8-10 weeks old) were anesthetized by intraperitoneal injection (135 μL) of a mixture of ketamine hydrochloride (Anesketin; […]) and medetomidine (Domitor; 1 mg/mL) and their pupils dilated with one eye drop (50 μL) Tropicamide (Tropicol™; 5 mg/mL; Thea, Research Papers Clermont-Ferrand, France). Three laser burns were placed in one eye with a green laser at the 9, 12, 3 o'clock positions around the optic disk using a slit lamp delivery system with a hand-held cover slide as a contact lens moisturized with Genteal Gel™ (Novartis, Vilvoorde, Belgium). Each spot was placed with a spot size of 100 μm, laser duration of a 50 milliseconds and a power of 320 mW. […] Finally, 300 μL atipamezole (Antisedan; 5 mg/mL) was injected intraperitoneally to reverse the effect of medetomidine and to reduce sedation time.
(§2) At different time points after lasering, the compounds were administered intravitreally (IVT). The animal was anesthetized with a mixture of ketamine hydrochloride/medetomidine and the eye was treated with a drop of 0.4% oxybuprocaine (Unicaine; Thea Pharma). Intravitreal injections (1 μL) to one eye according to Tables 1 to 3 were performed by using an analytic science syringe (SGE Analytic Science) and glass capillaries with a diameter of 50-70 μm at the end, controlled by the UMP3I Microsyringe Injector and Micro4 Controller (all from World Precision Instruments Inc., Hertfordshire, UK). Finally, atipamezole (Antisedan) was injected intraperitoneally to reverse the effect of medetomidine and to reduce sedation time.
(§3) To analyze the in vivo efficacy of the different compounds, the retina was removed from the dissected posterior segments. These posterior eye cups, which included retinal pigment epithelium (RPE), the choroid and the sclera were stored in phosphate buffered saline (PBS).
To stain for the presence of collagen type 1 (Colla) protein in the laser spots at day 30 after laser, a rabbit anti-collagen antibody (Abcam, 1/270) was used overnight, diluted in Tris-buffered saline (TBS)-Triton 0.5% (v/v) at 4° C. The following day, the tissues were incubated for 2 hours with goat anti rabbit IgG Alexa Fluor 555 (Life Technologies; A-21428), diluted 1/100 in TBS-Triton 0.3% (v/v) at 4° C. The flat mounts of the posterior eye cups were mounted with Prolong Gold with 4′,6-diamidino-2-phenylindole (DAPI, Molecular Probes). Images were obtained using a microscope with a digital camera (Axiocam MrC5; Carl Zeiss, Oberkochen, Germany) at a magnification factor of 20. Morphometric analyses were performed using commercial software (Axiovision; Zeiss, Oberkochen, Germany). The density of collagen deposition was determined by calculating the Colla-positive area as a proportion of the total lesion.
(§4) The mouse CNV model as described in Example 2.1 was used. At different time points after lasering, compounds were administered intraperitoneally (IP), or intravitreally (IVT), as indicated in Table 3.

mouse CNV model [2] = experiment: Leukocyte infiltration (CD45 staining) in laser-induced CNV mouse model; assay type: in vivo
Description: as §1, §2, §3
On day 5 after lasering, a rat anti-mouse CD45 and F4/80 antibody ( 1/100; Pharmingen, Erembodegem, Belgium) was used overnight to stain all leukocytes and macrophages, respectively, diluted in Tris-buffered saline (TBS)-Triton 0.3% (v/v). The following day, the tissues were incubated for 2 hours with rabbit anti-rat biotin labeled antibody ( 1/300; DakoCytomation A/S, Copenhagen, Denmark), diluted in TBS-Triton 0.3%. Antibody binding was visualized by fluorescent staining using streptavidin-Alexa-568 ( 1/200; Molecular Probes, Life Technologies, Eugene, Oreg., USA) in TBS-Triton 0.3% for 2 hours. The flatmounts of the posterior eye cups were mounted with Prolong Gold with 4′,6-diamidino-2-phenylindole (DAPI, Molecular Probes). Images were obtained using a microscope with a digital camera
(Axiocam MrC5; Carl Zeiss, Oberkochen, Germany) at a magnification of 20×. Morphometric analyses were performed using commercial software (Axiovision; Zeiss, Oberkochen, Germany). The density of inflammation was determined by calculating the CD45-positive area as a proportion of the total lesion.

[3] = tested on: retinal pigment epithelium (RPE) cell; conditions: Julien et al., Br J Ophthalmol 2014; cited from earlier work
mouse CNV model [4] = experiment: Macrophage infiltration (F4/80 staining) in laser-induced CNV mouse model; assay type: in vivo; conditions: day 5 after lasering; IVT D0; compared to IgG; dose not stated
Description: as §1
At different time points after lasering, the compounds were administered intravitreally (IVT). The animal was anesthetized with a mixture of ketamine hydrochloride/medetomidine and the eye was treated with a drop of 0.4% oxybuprocaine (Unicaine; Thea Pharma). […]

[5] = tested on: age-related macular edema (AMD); conditions: in vivo; cited from earlier work
[6] = tested on: retinal ganglion cells (RGCs); experiment: Neuroretinal safety in naive mice: apoptotic cells in ganglion cell layer (TUNEL staining); assay type: in vivo, mouse; conditions: 25 mg/kg IP 3 times per week
Description: A TUNEL (terminal deoxynucleotidyl transferase-mediated biotinylated UTP nick end labeling) staining was performed to investigate apoptotic signal. Serial sections were deparaffinized, washed and treated with proteinase K ( 1/500; Qiagen, Venlo, the Netherlands) for 15 minutes. Next, sections are incubated with the TUNEL reaction mixture (In Situ Cell Death Detection Kit, POD; Roche, Mannheim, Germany) at 37° C. for 1 hour. Afterwards, the slides were mounted with Prolong Gold containing DAPI (Molecular Probes). Each section was scanned systematically from the temporal to the nasal or a serrata for fluorescent cells indicative of apoptosis. […]

mouse CNV model [7] = experiment: Pericyte coverage (αSMA staining) in mouse CNV model; assay type: in vivo; conditions: day 14 after lasering, 25 mg/kg IP 3 times per week
Description: as §1, §4
To study pericyte coverage as a marker of vessel maturation, smooth muscle cell actin (SMA) was examined on serial […] paraffin sections. […] The amount of SMA cells present in the lesion was determined by the use of commercial software (Axiovision; Zeiss, Oberkochen, Germany).

[8] = tested on: retinal ganglion cells (RGCs); conditions: mouse, in vivo, ip, 25 mg/kg
Description: To investigate the safety of anti-PlGF and anti-VEGF-R2 on the retinal ganglion cell layer, naive mice (C75Bl/6 or Swiss mice) were injected with 25 mg/kg of anti-PlGF, anti-VEGF-R2 or control IgG 3 times a week for 6 weeks. Afterwards the mice were sacrificed and immunohistochemistry for the neuronal marker NeuN was performed. The samples were incubated overnight with the primary mouse anti-NeuN (Chemicon MAB377) 1/500. As secondary antibody, rabbit anti-mouse biotin-labeled 1/400 (Dako E0646) was added for 45 minutes. Subsequently, the sections were incubated with Streptavidin-HRP 1/100 in TNB for 30 minutes, followed by amplification with Biotin (kit NEL700) 1/50 in amplification buffer for 8 minutes and again incubated with Streptavidin-HRP 1/100 for 30 minutes (all from Perkin Elmer, Life Sciences). Hereafter, a 3,3-diaminobenzidine (DAB) staining (Fluka-Sigma Aldrich) was performed by adding peroxide to the tissue and a counterstaining was done with Harris hematoxylin (Merck). Viable RGCs were quantified 2 times on the same serial section on a defined length of the retina (250 μm) on either side of the optic nerve.

[9] = day 30, equimolar comparison FIG. 2B: 5D11D4 3.1 μg, DC101 3.1 μg, aflibercept 2.4 μg, TAAC 4 μg, vs IgG
[10] = day 5, equimolar comparison FIG. 1B: 5D11D4 3.1 μg, DC101 3.1 μg, aflibercept 2.4 μg, TAAC 4 μg, vs IgG
[11] = day 30, repeated IVT, 3.1 μg (FIG. 2A)
[12] = day 5, equimolar comparison FIG. 1B (5D11D4 3.1 μg, aflibercept 2.4 μg)
[13] = repeat experiment (FIG. 4), day 30, 3.1 μg/eye, compared to PBS

For `CC1(C)O[C@@H]2C[C@H]3[C@@H]4CCC5=CC(=O)C=C[C@]5(C)[C@@]4(F)[C@@H](O)C[C@]3(C)[C@]2(C(=O)CO)O1` [TAAC, triamcinolone acetonide, reference compound], the “effect on collagen deposition, in words” value (mouse CNV model [1]; [9]) was “no effect”, the “reduction in collagen deposition (Col1a)” value (mouse CNV model [1]; repeat experiment (FIG. 4), day 30, 40 μg/eye, compared to PBS) was 49% and the “effect on leukocyte infiltration (CD45), in words” value (“effect on leukocyte infiltration” below) (mouse CNV model [2]; [10]) was “no effect”.

In the case of “aflibercept: multispecific inhibitor capturing VEGF-A, VEGF-B and PlGF; tradename Eylea®, Bayer”, the “effect on RPE cell death, in words” value [3] is given as “increase retinal pigment epithelium (RPE) cell death”, the “effect on collagen deposition, in words” value (mouse CNV model [1]; [9]) is given as “no effect; also recorded: did not show any anti-fibrotic effects” and the “effect on collagen deposition, in words” value (mouse CNV model [1]; day 30, repeated IVT, 2.4 μg (FIG. 2A)) is given as “no effect on collagen deposition”. For the same molecule, the “effect on collagen deposition, in words” value (mouse CNV model [1]; [11]) was “did not show any anti-fibrotic effects”, the “effect on collagen deposition, in words” value (mouse CNV model [1]; day 30, repeated IVT, 20 μg (FIG. 2A)) was “no effect on collagen deposition” and the “effect on posterior ocular fibrosis, summary statement” value (mouse CNV model [1]; laser-induced CNV, dose not stated) was “did not reduce posterior ocular fibrosis”. For the same molecule, the “effect on collagen deposition / fibrosis, in words” value (mouse CNV model [1]; repeat experiment (FIG. 4), day 30, equimolar amount 2.4 μg/eye, compared to PBS) was “did not reduce fibrosis”, the “decrease of infiltration of macrophages (F4/80)” value (mouse CNV model [4]) was 52% and the “effect on inflammation in laser-induced CNV, summary statement” value (mouse CNV model [2]; comparable reduction at comparable dose, dose not stated) was “able to reduce inflammation”. For the same molecule, the “reduction in leukocyte infiltration (CD45)” value (“reduction … (CD45)” below) (mouse CNV model [2]; [12]) was 50%, the “effect on leukocyte infiltration” value (mouse CNV model [2]; day 5 after lasering, IVT D0, 2.4 μg, vs IgG (FIG. 1A)) was “comparable effects” and the “effect on leukocyte infiltration” value (mouse CNV model [2]; day 5 after lasering, IVT D0, 20 μg, vs IgG (FIG. 1A)) was “comparable effects”. For the same molecule, the “reduction … (CD45)” value (mouse CNV model [2]; day 5 after lasering, single IVT D0, 2.4 μg, compared to IgG) was “approximately 50%” and the “reduction … (CD45)” value (mouse CNV model [2]; day 5 after lasering, single IVT D0, 20 μg, compared to IgG) was “approximately 50%”.

For “bevacizumab: antibody binding all VEGF-A isoforms”, the “patients developing a posterior fibrotic scar” value [5] is listed as 24.7%.

For “ranibizumab: antibody fragment binding all VEGF-A isoforms”, the “patients developing a posterior fibrotic scar” value [5] is given as 24.7%.

B1: 5D11D4: murine anti-murine PlGF-neutralizing antibody; heavy chain SEQ ID NO:12, light chain SEQ ID NO:13 (antibody, listed as Mus musculus, V domains shown)
VH: QVQLQQPGAELVRPGASVKLSCKASGYTFTNYWINWVKQRPGQGLEWIGNIYPSDSFTNYNQKFKDKATLTVDKSSSTAYMHLSSPTSDDSAVYYCTRDYRYDAVYALDYWGQGTSVTVSS
VL: QIVLTQSPAIMSASPGEKVTITCSASSSVSFIHWFQQKPGTSPKLWIYGTSNLASGVPARFSGSGSGTSSSLTISRMEAEDAATYYCQQRSRYPYTFGGGTKLEIK
modifications: VH 5D11D4; VL 5D11D4
In the case of B1, the “effect on collagen deposition, in words” value (mouse CNV model [1]; [9]) is reported as “delays the process of wound healing; also recorded: decreased collagen deposition”, the “effect on collagen deposition, in words” value (mouse CNV model [1]; day 30, repeated IVT, 1.5 μg (FIG. 2A)) is reported as “decreased collagen deposition” and the “effect on collagen deposition, in words” value (mouse CNV model [1]; [11]) is reported as “decreased collagen deposition”. The “reduction in collagen deposition (Col1a)” value (mouse CNV model [1]; day 30 after lasering, 1.5 μg, compared to IgG) was 43%, the “reduction in collagen deposition (Col1a)” value (mouse CNV model [1]; day 30 after lasering, 3.1 μg, compared to IgG) was 44% and the “effect on collagen deposition / fibrosis, in words” value (mouse CNV model [1]; [13]) was “significantly decreased collagen deposition”. The “reduction in collagen deposition (Col1a)” value (mouse CNV model [1]; [13]) was 44%, the “decrease of infiltration of macrophages (F4/80)” value (mouse CNV model [4]) was 48% and the “reduction … (CD45)” value (mouse CNV model [2]; [12]) was 50%. For the same molecule, the “effect on leukocyte infiltration” value (mouse CNV model [2]; [10]) was “decreased leukocyte infiltration”, the “effect on leukocyte infiltration” value (mouse CNV model [2]; day 5 after lasering, IVT D0, 1.5 μg, vs IgG (FIG. 1A)) was “decreased leukocyte infiltration” and the “effect on leukocyte infiltration” value (mouse CNV model [2]; day 5 after lasering, IVT D0, 3.1 μg, vs IgG (FIG. 1A)) was “decreased leukocyte infiltration”. For the same molecule, the “reduction … (CD45)” value (mouse CNV model [2]; day 5 after lasering, single IVT D0, 1.5 μg, compared to IgG) was 36%, the “reduction … (CD45)” value (mouse CNV model [2]; day 5 after lasering, single IVT D0, 3.1 μg, compared to IgG) was 46% and the “apoptotic cells per retinal area versus control IgG, in words” value ([6]; C57Bl/6 mice, after 6 weeks) was “comparable”. For the same molecule, the “apoptotic cells per retinal area in the ganglion cell layer (TUNEL)” value ([6]; C57Bl/6 mice, after 6 weeks, control IgG 16±2) was 20±4 apoptotic cells per retinal area, the “effect on apoptotic cells / apoptotic rate, in words” value ([6]; Swiss mice (Rd gene)) was “did not induce any alteration” and the “αSMA-positive area versus control IgG, in words” value (mouse CNV model [7]) was “increased the αSMA (smooth muscle cell actin) positive area”. The “increase in pericyte-covered vessels” value (mouse CNV model [7]; vs control IgG) was 35%, the “RGCs/retinal area versus other treatment groups, in words” value [8] was “not significantly different” and the “effect on RGC density, in words” value [8] was “did not induce any alteration”. The “ganglion cell density (RGC/retinal area)” value [8] was 4600 RGC/retinal area.
